Assay results from the supplement of paper PMC12042874.
± gives the uncertainty stated by the source.

Test: amyloid nucleation score (Sup35N fusion, yeast selection) (log enrichment); library NNK3; higher = more nucleation; inactive = no reads after selection
In short: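 After 24 hours of induction with 100 μM copper sulfate, psi-negative yeast expressing peptides of 20 random codons fused to Sup35N were grown for 7 days at 30°C on medium lacking adenine and uracil. Input and output plasmid inserts were sequenced with Illumina, and sequences with under 100 input reads were discarded. Scores for nucleation are the DiMSum log enrichment of output over input reads, centred on the mode score of non-aggregating sequences.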

Substance	amyloid nucleation score
GDSLMMYQQDWISEVLICLA	inactive
RSHLWGRLASYAMGTHAG	inactive
NFRCDICLPNLTRY	0.313 ± 0.16
TQLIIAGFVPNYVVLPWSAH	1.38 ± 0.11
YQGAFS	0.341 ± 0.83
TPPVWTSPSSRLASCFKGLW	1.31 ± 0.15
MSNRHWM	inactive
MVNTM	inactive
NLKNYVFWREILSYVSDPWD	inactive
RIVEGMYLYVLS	inactive
FLFSW	-0.483 ± 1.9
KFCASSCWMNYSVFGMYLSI	inactive
YFNRNQYVDDTCG	inactive
TGIWSGYYKLFLSVLRGRRV	inactive
VCLLSS	inactive
VAFSFYFNSILVSVTRIVGS	0.773 ± 0.15
IILFKCWCKWEASGSATIVD	inactive
ACVSGIIFLLREQLLKMSGI	inactive
GLVLTPDEEMIRQWEMLTYG	inactive
NSCYFFNLHYVYHETANCFI	3.2 ± 0.068
DVCGFYIHFRFTNKYQGVAS	inactive
YTERYS	-0.265 ± 0.96
FLDDSFVFGNRRRWAWGCRG	inactive
PLVMGFIRVHCIFRRRFG	inactive

Substance	amyloid nucleation score
RCDVRFSWLIPSGLE	1.56 ± 0.086
DTSTSMFRRVMEATVSTSLL	inactive
EWIGVVNVRNDPPSGC	inactive
NTPVGLINYSGDTWLMAIRW	inactive
SKVKDDALPTTILCGTYNLN	inactive
NLFSRLRYSLSAFQIWRLSV	inactive
DFVTHWSVAMLMI	inactive
RKMFWDGF	inactive
VTVSHCRIRFFRLESDDGLC	-0.218 ± 0.88
YLTGTMSVEFRPHGMPNLSK	1.82 ± 0.08
NVAGM	inactive
SNGLATLSLSWCNCIKGGSL	2.9 ± 0.052
SFDCRRSSRL	inactive
YSGSNCLSSDEYWWRDDSLT	inactive
YVDNLACLNSFPIMPVFKVG	inactive
NLNYRLADSCLNSVLDRLGQ	inactive
FKFGLQLIRCMDFHWMF	inactive
RSLYASLCVRIFDGLYCCMK	inactive
SRFDDCSVYRESWVSIVRLS	inactive
LWIWR	-0.43 ± 0.7
GDNHSQD	0.37 ± 0.16
LAFFTHNIYF	1.97 ± 0.1
FFPCTGVRHSRDIAVV	inactive
AGGAMGVHRCPLLS	inactive

Substance	amyloid nucleation score
VVMSWYLVVTI	0.883 ± 0.26
VIYHPRFSRFLCEDWHDTCS	inactive
RCNLTCLGMIDVTIS	inactive
LAGSCMGLMCWVVDARAVGR	0.06 ± 0.64
DYYSCFISYRLIRYWICGEA	inactive
YFLFNTYWDRALQSKTVGGL	inactive
TFSFHLCIQEPTSFDNSLHT	0.164 ± 0.36
WFPMSAKLYAHATHCVPLSL	inactive
LNTKEYLLYKRICTSNANLL	-0.621 ± 1.1
EVNWSIIRGWVEISYTVPEL	inactive
LFNLGICYTISNYSLSLEQS	2.1 ± 0.086
ISRGALYLGMTATMRVQSGF	inactive
LGYPCFSKWFVYSRSIGLEG	inactive
RSFFSWAMNMRGLARWAWME	1.78 ± 0.11
GNFINHT	inactive
VSTCT	inactive
LRNVYTRVEITQLLTRTSGS	inactive
CDFYVNGTGPSETRWNSKEH	inactive
LMPRTEI	inactive
NVLCSVRC	inactive
PRIWLVAFQTKTCYPSGGWL	-1.47 ± 1.9
PKSLLVPIIRPMQVWRKFDL	inactive
GHISGTESCNI	inactive
ILPGRHCGGASMHTQTCQ	inactive

Substance	amyloid nucleation score
SVVVVSWTTMLNDKLDPLDG	inactive
LFMKSVEMWNRGYLSITCMC	inactive
SSFNFTSIVLHIANLLHFFL	inactive
MLSLSLYKLFLRWKRTSSHD	0.904 ± 0.16
TSVRELNLMPCDENSTICDI	inactive
ALDMVLYL	inactive
MCPHKGIRSISLMIG	inactive
GLFRRVRGIRT	inactive
GCGSYSDQGRCSTSVSVC	inactive
AVSLTW	inactive
SVNNVAWWHYGKMRVNFTFS	-0.552 ± 0.71
DTRVGP	inactive
LCETYYHHTARGLHLASLVS	inactive
LKTSNRR	inactive
LFLMWRTYYVNILESSCVVC	inactive
GDQFQAMHVWNLPDVDYYVH	inactive
CMTFLNIYSNGQLSGTYCLF	1.59 ± 0.083
CTHLLFCPMGRVSTCSLKME	inactive
ALNFPYSSRVFYFKDSAHAF	inactive
LRNIMGECDSAWKDVMVGVA	inactive
GCIIGCQLDKYGPAMPSARE	0.632 ± 0.3
GSQYNSFSK	inactive
DCCSYRSERA	inactive
LRGSYNVS	inactive

Substance	amyloid nucleation score
ARYRHGFTALRND	inactive
PTTFNVFLGLWCVGTYCTWL	0.997 ± 0.24
QWGGSNIVRYRNFIVGLFVR	inactive
HLIST	inactive
SGSSMTS	inactive
IRVLVCIFWKTCPPNYVCRI	inactive
ILVFILYHCCIIHLGLNLAK	inactive
RMRSMRSMF	inactive
MIWFVLL	2.17 ± 0.089
LKSGVFFG	inactive
LTRFQ	inactive
FELVIYQIVRIIVRSLADIS	inactive
LKTCFIP	inactive
EVFHIRMSVF	-0.577 ± 2.4
FCWVLCTP	inactive
NNNPVGILQNSCVGVIFNHS	-0.517 ± 1
LGLILIVLLVRPVFDSKRLD	inactive
RAYSLLVRQIVRCNESG	inactive
AHGFLSVFV	0.92 ± 0.12
IFFAMISCTYLLDCVDRNWG	inactive
ANSSRDMCSLLVLVRGTQ	-0.385 ± 0.96
ACVRKIIKVGYFYERISIRV	inactive
YRLRSICSFLGVVSYG	inactive
DSCTDEENM	inactive

Substance	amyloid nucleation score
RAYSYPSDYWW	-0.122 ± 0.43
FYILCHHKDCNIGHPILGGK	inactive
IRESFINGVYMVVSEFKCFT	inactive
WIGVQCP	inactive
PFPHKDQYHGGGKWPDE	inactive
VGSYVGRAVVEGYNCRVDTG	inactive
YTPVIKCSYFTSIIGWAGPA	inactive
RVSRAGMIMGPMLLFNKYFD	inactive
LDSYVDFLTYFSQKGSRHHL	inactive
VEAHLLL	0.01 ± 0.87
VIAVRYYRLLDRMNVSGSVF	inactive
FWSPGYTIVTVTLNGLVPW	inactive
TIVTIVAFFNMERYGHFRGD	0.903 ± 0.11
KVSWMFYRCSDNNN	1.66 ± 0.074
GQVLNCVRNRIRIAVKRRGG	inactive
RVWRSNSPGAEKWTLLTKTL	inactive
IMVKVW	inactive
TRSFVRSGAWNSLEGW	1.16 ± 0.16
VNGTLGFIGRETLYGTTRLT	inactive
SWMTTRKGGDVALHASLFRM	inactive
SFGAKCARGQDSTASVFNNG	-0.33 ± 1.1
EQRLSSGRWVS	inactive
SSITRVEKSCIFLCTALMLR	inactive
IVDASGQRAMGSDFIHVLHR	inactive

Substance	amyloid nucleation score
GDSLGGTYYLLRSFFCCRDL	inactive
FYFVGKYWRGDEYFDFRLAV	inactive
HVKDVMQRNFRVMGSSSR	inactive
AWCKGV	inactive
ETGDI	1.64 ± 0.087
DRGVLFRHIILGSPHIMNRV	inactive
CFRVYVPNSKSDDL	inactive
VDRFRSQNKFVSNGMSLIRK	inactive
RFSMNASYFYYVIMFSDCYS	inactive
TTASFFLNKISLKNHRASCT	inactive
FIFAG	inactive
IERSDSVSWRGVLVGIEMKV	inactive
LMAVHMGMCMHEILHAVSLR	inactive
YKLNMLLGYLLMFTLGIHAV	inactive
VGGGSFCFKHRLNGGTDGHV	1.11 ± 0.13
WRAAIEDASLFIERIHNNSS	inactive
CWVRIVAICMGFW	inactive
SDWIRNG	inactive
